The values that follow come from paper PMC3653948, “PDZ Domain-Mediated Interactions of G Protein-Coupled Receptors with Postsynaptic Density Protein 95: Quantitative Characterization of Interactions” (PLoS ONE, 2013).

For experiment [1], the target named is PSD-95 PDZ1 (aa 61–151) (UniProt P78352). In words: fluorescence polarisation; competition: 25 nM Cy5-labeled probe and a constant concentration of PDZ protein corresponding to the K d of the probe, twofold dilution series of unlabeled peptide (typically 1–512 µM); 10 mM HEPES pH 7.4, 150 mM NaCl, 1% BSA; room temperature; K i calculated from the IC50.
Experiment [2] addresses PSD-95 PDZ2 (aa 155–249) (UniProt P78352). Described as above.
Experiment [3] addresses PSD-95 PDZ3 (aa 309–401) (UniProt P78352). The experiment is described as above.
Experiment [4] addresses PSD-95 PDZ1 (aa 61–151) (UniProt P78352). In words: SPR; PDZ domains immobilised by amine coupling on Sensor Chip CM5 (PDZ1, PDZ2) or CM4 (PDZ3); peptides injected 1 min, 1 min dissociation, 30 µl/min; […]; HBS-EP+ (10 mM HEPES pH 7.4, 150 mM NaCl, 3 mM EDTA, 0.05% Surfactant P-20). Background: In SPR one partner is held on a chip, and binding of the other changes the refractive index at the surface.

Experiment [5] addresses PSD-95 PDZ2 (aa 155–249) (UniProt P78352). Described as above.
Experiment [6] has as its target PSD-95 PDZ3 (aa 309–401) (UniProt P78352). The description is as above.

As usually defined, the Ki is the dissociation constant of the complex between target and ligand, obtained from inhibition or displacement. As to “5-hydroxytryptamine receptor 2A (5-HTR2A) C-tail peptide, human”, the Ki in experiment [1] is 160 µM; in experiment [2] it was 46 µM; in experiment [3] it was greater than 1000 µM.
What is called koff is a measure of how fast the partners let go of each other. A low value points to slow dissociation. “5-hydroxytryptamine receptor 2C (5-HTR2C) C-tail peptide, human”: the Ki in experiment [1] was 100 µM; in experiment [2] it was 26 µM; in experiment [3], 370 µM. Further, the koff in experiment [4], in experiment [5] and in experiment [6] was greater than 1 s⁻¹ throughout.
As for BAI1 receptor C-tail peptide, human, the Ki was 63 µM in experiment [1], 29 µM in experiment [2] and 790 µM in experiment [3].
Regarding “chemokine receptor CXCR2 C-tail peptide, human”, the Ki in experiment [1] was 280 µM; in experiment [2] it was 370 µM; in experiment [3] it was 370 µM.
For “human somatostatin receptor 1 (hSSTR1) C-tail peptide”, the Ki in experiment [1] is 50 µM; in experiment [2] it was 28 µM; in experiment [3] it was 200 µM.
For “human somatostatin receptor 4 (hSSTR4) C-tail peptide”, the Ki was 750 µM in experiment [1], 450 µM in experiment [2] and 600 µM in experiment [3].
For the substance “mouse somatostatin receptor 1 (mSSTR1) C-tail peptide”, the values for the Ki in experiment [1], in experiment [2] and in experiment [3] were 270 µM, 90 µM and greater than 1000 µM, respectively.
For “mouse somatostatin receptor 4 (mSSTR4) C-tail peptide”, in that order: greater than 1000 µM, 420 µM and greater than 1000 µM.
Take “neuropeptide Y receptor Y2 C-tail peptide, human”: the Ki is 270 µM in experiment [1], 230 µM in experiment [2] and greater than 1000 µM in experiment [3].
For the substance “somatostatin receptor 2A (SSTR2A) C-tail peptide, human”, the inhibitory constant (Ki) in experiment [1] is 620 µM; in experiment [2], 230 µM; in experiment [3], greater than 1000 µM.
Take “somatostatin receptor 3 (SSTR3) C-tail peptide, human”: the Ki was 610 µM in experiment [1], greater than 1000 µM in experiment [2] and 280 µM in experiment [3].
As to “β1-adrenergic receptor (β1AR) C-tail peptide, human”, the Ki was 430 µM in experiment [1], 120 µM in experiment [2] and 360 µM in experiment [3].
